Data on eleven sequences can be found in the DeepSol protein solubility set.

The nature of this series: soluble on expression in E. coli; label from the status in PepcDB or PDB records.
As to “MEYKSTRHAKYLCNYHFVWIPKYRRKVLTGEVAEYTKEVLRTIAEELGCEVLALEVMPDHIHLFVNCPPRYAPSYLANYFKGKSARLILKKFQELKKSTNGKLWTRSYFVSTSGNVSSETIKKYIEEQWAKENEED”, the “soluble on expression in E. coli” value was “soluble”.

Take “MEYMVLIYRDEAFAPEYGSPEWEQMMGGFLAFNQRLIDGGHWIAGGGLQTTPSATTVRLAAGTVPKVLDGPYAETKEQLGGFYLVRADTLDEVLDLARSLPIEGAIEVRPLTYRPTGE”: the “soluble on expression in E. coli” value is “not soluble”.

“MEYNLDLARAFLQKHRIAVVEPNPPYLQFSEAQLAQQKAKLAKNLQISTACKWLFVHASTGGSATSLSIEQYAQMLNGIASETNCEIVLTAGKGESEKAYQLAAQITATKAVVYDKNDGLQDFARSIACADLFIAGSTGPLHIAGALNVATIGFYPSRLSALPRRWRPINEEGKHLEHHHHHH”: the “soluble on expression in E. coli” value was “not soluble”. To “MFAERLKELRKREAGLTQERLAMQLGMAKTTLASYEQGKRQPDLETLSKIADRFSVTTDYLLGKNGTPKWATKKDTIDLKDFLEANEGSMTYGGEDLTEEEKQQVRVAMATIFWKRHKHD” belongs “not soluble”. As for “MFDPKKLEQIAKQIHDSMPAPVKELGADVDQKVRQVIQGQLNKLDVVSREEFDVQTQVLLRTRQKLTEMEKKLSELEEKLADK”, the “soluble on expression in E. coli” value is recorded as “not soluble”. For the sequence “MFEPGHLHLVSLPGLDQQDINIHIRYEVRQNAESGAYVHFDMDGEIDGKPFSDSFELPRDTAFNFASDATRVAQKHGLHPKFGAITRVHKEYDAMFEDIRAKLHAHPGEPVDLERIIRHE”, the “soluble on expression in E. coli” value is listed as “not soluble”. The value for “MFETCEAIVMRTVDYGETNKIVTLFTREWGKVAAMARGAKKPSSRLSAVTQPLSYGHYVIRRSRGVGVLHQGELIDSMRALREDLFAAAYAVYIVELTDKSTEEQKRNPYLFELLLQTLQYMSEGRDLEILTFIYEMKMLAVLGIPPVLDRCARCGATEGRFSFSVKEAGFLCHRCEASDPHRFPLSSASVRLLRLFFHIDLARLGSISVKESTKMELGSVLSAYYDEYAGLSLKTKRFLQQIGELKDKLSPDGGQGASFSL” was “not soluble”. The value for “MFFSEARARSRTWEASPSEHRKWVEVFKACDEDHKGYLSREDFKTAVVMLFGYKPSKIEVDSVMSSINPNTSGILLEGFLNIVRKKKEAQRYRNEVRHIFTAFDTYYRGFLTLEDFKKAFRQVAPKLPERTVLEVFREVDRDSDGHVSFRDFEYALNYGQKEA” was “not soluble”; that for “MFFSFKIDGDELDKRMGGGVYVGQLFTIFGDNSEGKTLLSLRLAYGFLKNGISITYVSSQMPVREFISFSDALGYPVLNSVISGSMLYITPVFMLRRTRRANLDELINNDRIKEKSVLIIDSLNPGMFRDFEINSYMEKLRKFSENRVVIITANQASLDDATVLRINQLSTTIVTLHSKELGGVKRHFIDLVKYPMVVRSIQQSIPFRVEPGRGLIVEISSVS” was “not soluble”. To “MFGNYISTSPEKIIMLALRIMQGIAKTLAEHVLDLKHSPLSKQAMKRQTLRLWAEYSLGTINKIIDMKSGPSNQSAEEMEFIRRLILIRRDIHSQLHSVGIDINDGTGD” belongs “not soluble”.

Consider “MFGSSGFGNKSMFGGSNISTSTTTPAANTTQNDDFLVDGAPEDTIQVIKFSPTPQDKPMLACGSWDGTIRVWMFNDANTFEGKAQQNIPAPILDIAWIEDSSKIFIACADKEARLWDLASNQVAVVGTHDGPVKTCHWINGNNYQCLMTGSFDKTLRFWDMKNLPNQTQMAQIQLPERVYAADVLYPMAVVALANKHIKVYNLENGPTEVKDIESQLKFQIRCISIFKDKSNQNPAGFALGSIEGRVAVQYVDVANPKDNFTFKCHRSAELVNGFQEIYAVNDICFHPQHGTLVTIGSDGRYSMWDKDARTKLKTSEPHPMPLTCCDVHSSGAFLVYALGYDWSRGHEGNTQPGSKIVIHKCIEDMKPRPTKK”, for which the “soluble on expression in E. coli” value is on record as “not soluble”.
